Measured values as given in the supplement of paper PMC9112550, “Optimization of the antimicrobial peptide Bac7 by deep mutational scanning” (BMC Biology, 2022).

Tested on: Escherichia coli TOP10
Assay: shrunken log2 fold change of peptide-encoding DNA abundance (4.5 h post-induction vs induction); higher = less antimicrobial activity (less host growth inhibition)
Conditions: time post-induction: 4.5 h; library: site-saturation at positions 5, 18, 19, 20
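Further: peptides expressed intracellularly from a pBAD plasmid library in pooled LB shake-flask culture, induced with 0.3% L-arabinose, DNA abundance read by NGS, three biological replicates, DESeq2 with apeglm shrinkage.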

Sequence | shrunken log2 fold change
RRIRMRPPRLPRPRPRPDFYPRP | 0.06
RRIRVRPPRLPRPRPRPWGGPRP | 0.307
RRIRRRPPRLPRPRPRPQLAPRP | -0.0216
RRIRNRPPRLPRPRPRPSRHPRP | -0.061
RRIRIRPPRLPRPRPRPPLTPRP | -0.0194
RRIRVRPPRLPRPRPRPIHYPRP | -0.137
RRIRFRPPRLPRPRPRPNRPPRP | -0.0705
RRIRARPPRLPRPRPRPDVQPRP | 0.474
RRIRNRPPRLPRPRPRPKKEPRP | 0.0493
RRIRGRPPRLPRPRPRPEMVPRP | 2.43
RRIRYRPPRLPRPRPRPHCSPRP | -0.239
RRIRARPPRLPRPRPRPAAHPRP | 0.478
RRIRGRPPRLPRPRPRPMRYPRP | 0.347
RRIRRRPPRLPRPRPRPTVCPRP | 0.227
RRIRCRPPRLPRPRPRPTGKPRP | 0.355
RRIRTRPPRLPRPRPRPKDKPRP | -0.341
RRIRKRPPRLPRPRPRPKRFPRP | -0.0257
RRIRIRPPRLPRPRPRPCAAPRP | -0.0041
RRIRGRPPRLPRPRPRPGHLPRP | 0.0503
RRIRLRPPRLPRPRPRPDCPPRP | 0.0832
RRIRSRPPRLPRPRPRPWKEPRP | -0.0075
RRIRPRPPRLPRPRPRPERCPRP | 0.271
RRIRTRPPRLPRPRPRPRVAPRP | 0.258
RRIRRRPPRLPRPRPRPISIPRP | -0.0402
RRIRARPPRLPRPRPRPEMWPRP | 1.21

Sequence | shrunken log2 fold change
RRIRPRPPRLPRPRPRPNNLPRP | -0.181
RRIRWRPPRLPRPRPRPEHVPRP | 0.0199
RRIRQRPPRLPRPRPRPMSYPRP | -0.01
RRIRHRPPRLPRPRPRPWCNPRP | -0.417
RRIRPRPPRLPRPRPRPEAPPRP | 0.53
RRIRERPPRLPRPRPRPDFGPRP | -0.0271
RRIRVRPPRLPRPRPRPNWDPRP | -0.0621
RRIRRRPPRLPRPRPRPEFGPRP | 0.376
RRIRNRPPRLPRPRPRPAKQPRP | -0.0201
RRIRTRPPRLPRPRPRPGFAPRP | 0.33
RRIRPRPPRLPRPRPRPILLPRP | -0.526
RRIRQRPPRLPRPRPRPWRWPRP | -0.0392
RRIRRRPPRLPRPRPRPVVPPRP | 0.47
RRIRGRPPRLPRPRPRPGTEPRP | 0.731
RRIRVRPPRLPRPRPRPWTFPRP | -0.0163
RRIRWRPPRLPRPRPRPFNSPRP | -0.207
RRIRCRPPRLPRPRPRPTTDPRP | -0.0121
RRIRERPPRLPRPRPRPDISPRP | 0.0621
RRIRCRPPRLPRPRPRPWIQPRP | -0.000687
RRIRGRPPRLPRPRPRPARGPRP | 0.915
RRIRPRPPRLPRPRPRPYPWPRP | -0.345
RRIRMRPPRLPRPRPRPKFIPRP | -0.182
RRIRMRPPRLPRPRPRPLTYPRP | -0.0782
RRIRTRPPRLPRPRPRPHLRPRP | -0.264
RRIRRRPPRLPRPRPRPGFFPRP | 0.268

Sequence | shrunken log2 fold change
RRIRMRPPRLPRPRPRPETLPRP | -0.0225
RRIRLRPPRLPRPRPRPNYAPRP | -0.0328
RRIRYRPPRLPRPRPRPDNQPRP | -0.644
RRIRFRPPRLPRPRPRPQFLPRP | -0.236
RRIRMRPPRLPRPRPRPFVSPRP | -0.0194
RRIRFRPPRLPRPRPRPTQDPRP | 0.33
RRIRHRPPRLPRPRPRPTELPRP | 0.0215
RRIRTRPPRLPRPRPRPTVDPRP | -0.126
RRIRTRPPRLPRPRPRPRLNPRP | -0.251
RRIRVRPPRLPRPRPRPNKCPRP | -0.616
RRIRHRPPRLPRPRPRPCYAPRP | -0.291
RRIRCRPPRLPRPRPRPCWMPRP | -0.404
RRIRERPPRLPRPRPRPKQNPRP | -0.073
RRIRARPPRLPRPRPRPMSNPRP | -0.433
RRIRRRPPRLPRPRPRPESRPRP | 0.0681
RRIRQRPPRLPRPRPRPHCEPRP | -0.0142
RRIRYRPPRLPRPRPRPCRCPRP | -0.0894
RRIRRRPPRLPRPRPRPQIAPRP | 0.31
RRIRYRPPRLPRPRPRPREKPRP | 0.124
RRIRKRPPRLPRPRPRPQYFPRP | -0.0337
RRIRCRPPRLPRPRPRPTEIPRP | -0.146
RRIRQRPPRLPRPRPRPQAMPRP | 0.015
RRIRERPPRLPRPRPRPLPMPRP | 0.187
RRIRYRPPRLPRPRPRPGWVPRP | 0.0444
RRIRFRPPRLPRPRPRPLAAPRP | 0.315

Sequence | shrunken log2 fold change
RRIRNRPPRLPRPRPRPADAPRP | 0.261
RRIRGRPPRLPRPRPRPATTPRP | 0.871
RRIRQRPPRLPRPRPRPVPMPRP | 0.132
RRIRYRPPRLPRPRPRPSSYPRP | -0.955
RRIRFRPPRLPRPRPRPGVMPRP | 0.238
RRIRKRPPRLPRPRPRPEYKPRP | 0.0908
RRIRRRPPRLPRPRPRPWKVPRP | 0.00548
RRIRYRPPRLPRPRPRPRCQPRP | -0.259
RRIRQRPPRLPRPRPRPHFAPRP | 0.0503
RRIRNRPPRLPRPRPRPGKVPRP | -0.123
RRIRKRPPRLPRPRPRPDIDPRP | 2.44
RRIRTRPPRLPRPRPRPIVLPRP | -0.145
RRIRTRPPRLPRPRPRPQLYPRP | -0.0657
RRIRARPPRLPRPRPRPCQTPRP | -0.0627
RRIRLRPPRLPRPRPRPRWKPRP | 0.191
RRIRMRPPRLPRPRPRPVTEPRP | -0.0547
RRIRTRPPRLPRPRPRPVPMPRP | -0.299
RRIRTRPPRLPRPRPRPKHQPRP | 0.219
RRIRGRPPRLPRPRPRPMPSPRP | 0.431
RRIRWRPPRLPRPRPRPNGSPRP | 0.0647
RRIRDRPPRLPRPRPRPSCMPRP | 0.0312
RRIRQRPPRLPRPRPRPNFYPRP | -0.0848
RRIRMRPPRLPRPRPRPEVIPRP | 0.0213
RRIRFRPPRLPRPRPRPVNAPRP | 0.135
RRIRKRPPRLPRPRPRPKYDPRP | 0.38

Sequence | shrunken log2 fold change
RRIRIRPPRLPRPRPRPQLMPRP | -0.442
RRIRFRPPRLPRPRPRPVKVPRP | -0.297
RRIRMRPPRLPRPRPRPWCPPRP | -0.101
RRIRSRPPRLPRPRPRPLNHPRP | -0.554
RRIRNRPPRLPRPRPRPIMPPRP | -0.225
RRIRARPPRLPRPRPRPHVPPRP | -0.242
RRIRGRPPRLPRPRPRPKNEPRP | 0.713
RRIRTRPPRLPRPRPRPGSFPRP | 0.00381
RRIRQRPPRLPRPRPRPDGGPRP | 0.255
RRIRVRPPRLPRPRPRPCFFPRP | -0.137
RRIRERPPRLPRPRPRPMHEPRP | -0.401
RRIRWRPPRLPRPRPRPEEMPRP | 0.013
RRIRDRPPRLPRPRPRPHAPPRP | 0.144
RRIRYRPPRLPRPRPRPKATPRP | -0.00674
RRIRLRPPRLPRPRPRPRSQPRP | 0.19
RRIRARPPRLPRPRPRPDGFPRP | 0.135
RRIRFRPPRLPRPRPRPTERPRP | -0.22
RRIRARPPRLPRPRPRPPYRPRP | -0.0935
RRIRHRPPRLPRPRPRPQYRPRP | -0.0967
RRIRYRPPRLPRPRPRPWGCPRP | -0.404
RRIRRRPPRLPRPRPRPCSTPRP | 0.0875
RRIRYRPPRLPRPRPRPAEKPRP | -0.0964
RRIRQRPPRLPRPRPRPGKLPRP | -0.0396
RRIRHRPPRLPRPRPRPIAMPRP | -0.119
RRIRWRPPRLPRPRPRPWEEPRP | 0.0688

Sequence | shrunken log2 fold change
RRIRARPPRLPRPRPRPEALPRP | 1.71
RRIRSRPPRLPRPRPRPHEPPRP | -0.154
RRIRRRPPRLPRPRPRPNYWPRP | -0.19
RRIRVRPPRLPRPRPRPPEHPRP | -0.219
RRIRLRPPRLPRPRPRPSDFPRP | -0.131
RRIRRRPPRLPRPRPRPWLKPRP | 0.127
RRIRVRPPRLPRPRPRPPFDPRP | 0.199
RRIRGRPPRLPRPRPRPMFRPRP | 0.303
RRIRGRPPRLPRPRPRPKMTPRP | 1.83
RRIRPRPPRLPRPRPRPEGYPRP | 0.128
RRIRTRPPRLPRPRPRPYHVPRP | -0.0196
RRIRDRPPRLPRPRPRPNSRPRP | -0.0447
RRIRVRPPRLPRPRPRPFPMPRP | -0.35
RRIRGRPPRLPRPRPRPCFRPRP | 0.0644
RRIRKRPPRLPRPRPRPPCVPRP | 0.443
RRIRVRPPRLPRPRPRPAKVPRP | 0.203
RRIRVRPPRLPRPRPRPWHTPRP | -0.33
RRIRARPPRLPRPRPRPLDMPRP | -0.00812
RRIRMRPPRLPRPRPRPSAWPRP | 1.75
RRIRRRPPRLPRPRPRPTHIPRP | 0.274
RRIRERPPRLPRPRPRPICEPRP | 0.0105
RRIRPRPPRLPRPRPRPIMVPRP | -0.158
RRIRIRPPRLPRPRPRPYTYPRP | -0.705
RRIRIRPPRLPRPRPRPWHTPRP | -0.113
RRIRKRPPRLPRPRPRPNHKPRP | -0.203
